Source: patent publication US11872270B2, “A*03 restricted peptides for use in immunotherapy against cancers and related methods” (Immatics Biotechnologies GmbH, priority 2018, dated 2024)

molecular target: HLA-A*03:01 (Homo sapiens, UniProt P04439); assay: MHC binding assay (UV-ligand exchange, β2m ELISA); settings: binding to HLA-A*03:01, UV-ligand exchange, β2m ELISA
Text: Candidate peptides for T cell based therapies according to the present invention were further tested for their MHC binding capacity (affinity). The individual peptide-MHC complexes were produced by UV-ligand exchange, where a UV-sensitive peptide is cleaved upon UV-irradiation and exchanged with the peptide of interest as analyzed. Only peptide candidates that can effectively bind and stabilize the peptide-receptive MHC molecules prevent dissociation of the MHC complexes. To determine the yield of the exchange reaction, an ELISA was performed based on the detection of the light chain (β2m) of stabilized MHC complexes. The assay was performed as generally described in Rodenko et al. (Rodenko et al., 2006) 96 well MAXISorp plates (NUNC) were coated over night with 2 ug/ml streptavidin in PBS at room temperature, washed 4× and blocked for 1 h at 37° C. in 2% BSA containing blocking buffer. Refolded HLA-A*02:01/MLA-001 monomers served as standards, covering the range of 15-500 ng/ml. Peptide-MHC monomers of the UV-exchange reaction were diluted 100-fold in blocking buffer. Samples were incubated for 1 h at 37° C., washed four times, incubated with 2 ug/ml HRP conjugated anti-β2m for 1 h at 37° C., washed again and detected with TMB solution that is stopped with […]. Absorption was measured at 450 nm. Candidate peptides that show a high exchange yield (preferably higher than 50%, most preferred higher than 75%) are generally preferred for a generation and production of antibodies or fragments thereof, and/or T cell receptors or fragments thereof, as they show sufficient avidity to the MHC molecules and prevent dissociation of the MHC complexes.

Substance | Peptide exchange (MHC class I binding score, peptide exchange yield)
138 (VSLSKMLKK; listed as Homo sapiens) [compound 138] | +++ (>50 = +++)
141 (RLRDYISSLK; listed as Homo sapiens) [compound 141] | ++++ (>75% = ++++)
142 (SPRVYWLGLNDR; listed as Homo sapiens) [compound 142] | + (>10% = +)
143 (KTLGKIAEK; listed as Homo sapiens) [compound 143] | ++++ (>75% = ++++)
144 (PLAMLAATCNK; listed as Homo sapiens) [compound 144] | ++ (>20% = ++)
145 (SLFEGIYTIK; listed as Homo sapiens) [compound 145] | ++++ (>75% = ++++)
146 (TLLSYELAFK; listed as Homo sapiens) [compound 146] | ++++ (>75% = ++++)
147 (KLFMPRPK; listed as Homo sapiens) [compound 147] | +++ (>50 = +++)
148 (RIGNKGIYK; listed as Homo sapiens) [compound 148] | +++ (>50 = +++)
149 (TVFLSKYLKK; listed as Homo sapiens) [compound 149] | +++ (>50 = +++)
150 (LLLAAVTVK; listed as Homo sapiens) [compound 150] | ++ (>20% = ++)
151 (KVASFTVIGY; listed as Homo sapiens) [compound 151] | +++ (>50 = +++)
152 (KIICGVHYLY; listed as Homo sapiens) [compound 152] | + (>10% = +)
153 (LASSPAGHK; listed as Homo sapiens) [compound 153] | +++ (>50 = +++)
154 (TIASVLVAR; listed as Homo sapiens) [compound 154] | ++ (>20% = ++)
156 (VSLGIAVSK; listed as Homo sapiens) [compound 156] | ++ (>20% = ++)
158 (RALGVPFVPR; listed as Homo sapiens) [compound 158] | ++++ (>75% = ++++)
160 (RLLPGKVVWK; listed as Homo sapiens) [compound 160] | ++++ (>75% = ++++)
161 (MKTLPAMLGTGK; listed as Homo sapiens) [compound 161] | ++ (>20% = ++)
163 (MLYYPSVSR; listed as Homo sapiens) [compound 163] | ++++ (>75% = ++++)
164 (RLAQYTIER; listed as Homo sapiens) [compound 164] | ++++ (>75% = ++++)
165 (AATIISSAK; listed as Homo sapiens) [compound 165] | + (>10% = +)
168 (ATNGKVLKK; listed as Homo sapiens) [compound 168] | ++++ (>75% = ++++)
169 (ATNGKVLKKR; listed as Homo sapiens) [compound 169] | ++++ (>75% = ++++)
171 (ATIGLSVSK; listed as Homo sapiens) [compound 171] | ++++ (>75% = ++++)
172 (SLLEADPFLK; listed as Homo sapiens) [compound 172] | +++ (>50 = +++)
173 (VSYNRLIK; listed as Homo sapiens) [compound 173] | +++ (>50 = +++)
174 (KMMKRLMTVEK; listed as Homo sapiens) [compound 174] | ++++ (>75% = ++++)
175 (VIGTTSSPK; listed as Homo sapiens) [compound 175] | +++ (>50 = +++)
176 (RLYDAYVNR; listed as Homo sapiens) [compound 176] | ++++ (>75% = ++++)

Further lines, results first:

Peptide exchange (MHC class I binding score, peptide exchange yield) | Substance
++++ (>75% = ++++) | 177 (ALLGVIIAKK; listed as Homo sapiens) [compound 177]
+++ (>50 = +++) | 178 (RIYVYVKRK; listed as Homo sapiens) [compound 178]
+++ (>50 = +++) | 179 (KINPTASLK; listed as Homo sapiens) [compound 179]
++++ (>75% = ++++) | 180 (RLKMAQESVSK; listed as Homo sapiens) [compound 180]
+++ (>50 = +++) | 181 (RVAEEILIK; listed as Homo sapiens) [compound 181]
++++ (>75% = ++++) | 182 (QICLPAIYK; listed as Homo sapiens) [compound 182]
++++ (>75% = ++++) | 183 (KVYIPPIINK; listed as Homo sapiens) [compound 183]
+++ (>50 = +++) | 184 (KVLEPPLGAR; listed as Homo sapiens) [compound 184]
+++ (>50 = +++) | 185 (SIINFKPLTY; listed as Homo sapiens) [compound 185]
++++ (>75% = ++++) | 187 (KTCQVSGLLY; listed as Homo sapiens) [compound 187]
++ (>20% = ++) | 188 (SSLPRAFQK; listed as Homo sapiens) [compound 188]
++ (>20% = ++) | 189 (KVFEEPEDFLK; listed as Homo sapiens) [compound 189]
++++ (>75% = ++++) | 190 (RSKWSNVFK; listed as Homo sapiens) [compound 190]
++++ (>75% = ++++) | 191 (SLYNLGGAK; listed as Homo sapiens) [compound 191]
++++ (>75% = ++++) | 192 (RSYSHVVLK; listed as Homo sapiens) [compound 192]
+++ (>50 = +++) | 193 (IVYPSATDKTK; listed as Homo sapiens) [compound 193]

Peptide exchange (MHC class I binding score, peptide exchange yield) | Substance
++++ (>75% = ++++) | 195 (KLQAKVLQY; listed as Homo sapiens) [compound 195]
++++ (>75% = ++++) | 196 (AISSTVLGK; listed as Homo sapiens) [compound 196]
++++ (>75% = ++++) | 197 (RIVDYLLEK; listed as Homo sapiens) [compound 197]
++++ (>75% = ++++) | 199 (IVFPDVISK; listed as Homo sapiens) [compound 199]
++++ (>75% = ++++) | 200 (RVLPPLTRILK; listed as Homo sapiens) [compound 200]
++++ (>75% = ++++) | 201 (KVADFGLARLLK; listed as Homo sapiens) [compound 201]
+++ (>50 = +++) | 202 (RLFPGLYLGY; listed as Homo sapiens) [compound 202]
++++ (>75% = ++++) | 203 (IVAFIPLSNK; listed as Homo sapiens) [compound 203]
++++ (>75% = ++++) | 204 (VAFIPLSNK; listed as Homo sapiens) [compound 204]
++++ (>75% = ++++) | 205 (RVYPRPPSK; listed as Homo sapiens) [compound 205]
++++ (>75% = ++++) | 206 (RLYEMILQR; listed as Homo sapiens) [compound 206]
++++ (>75% = ++++) | 208 (KTGWFTLLY; listed as Homo sapiens) [compound 208]
++++ (>75% = ++++) | 209 (KILDRVLSRY; listed as Homo sapiens) [compound 209]
++++ (>75% = ++++) | 210 (KIFQGQINK; listed as Homo sapiens) [compound 210]
+++ (>50 = +++) | 211 (VSLGTPIMK; listed as Homo sapiens) [compound 211]
++++ (>75% = ++++) | 212 (RTIDRSVFK; listed as Homo sapiens) [compound 212]
